Reference: patent publication US20180021429A1, “ANTICANCER AGENTS OR ANTIMETASTATIC AGENTS USING FSTL1 AND COMBINATION DRUG THEREOF” (PHARMA FOODS INTERNATIONAL CO., LTD., priority 2015, published 2018)
Entries after “also recorded” stand apart in the source; their conditions may differ.

Assays:
mouse FSTL1 [1] = target: T1, mouse FSTL1 (Mus musculus, UniProt Q62356); assay: ELISA binding activity of purified antibody against mouse FSTL1 (Example 2)
T1 construct: AAA linker + 10xHis (C); made in house; host or cells: Expi293 (transient expression; purified from culture supernatant on HisPur Cobalt Resin)
T1 sequence (Q62356 with tags, fused parts or gaps): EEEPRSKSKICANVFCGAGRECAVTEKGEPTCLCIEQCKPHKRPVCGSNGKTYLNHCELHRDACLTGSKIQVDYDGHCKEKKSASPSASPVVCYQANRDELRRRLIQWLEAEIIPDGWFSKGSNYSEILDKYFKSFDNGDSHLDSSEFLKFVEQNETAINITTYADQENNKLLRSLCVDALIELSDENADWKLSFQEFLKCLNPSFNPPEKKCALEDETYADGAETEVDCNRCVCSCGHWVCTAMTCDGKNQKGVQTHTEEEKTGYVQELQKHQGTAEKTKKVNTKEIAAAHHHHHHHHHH
Experimental: (§1) The reactivity of the obtained antibody clones described above with FSTL1 was evaluated by ELISA under the following conditions.
(Table 2 ELISA conditions for binding activity evaluation of purified antibody) Antibodies used: anti-dinitrophenyl (DNP) antibody (negative control), #5-2, #5-3, #5-8, #5-10, #5-43, #6-55, and #7-34
FIGS. 2 and 3 show results of evaluating binding activity under the condition of Table 3 as to clones differing in screening and antibody purification timings.
(§2) Antibodies used: anti-dinitrophenyl (DNP) antibody (negative control), #5-2, #5-3, #5-8, #5-10, #5-43, #6-55, and #7-34
FIGS. 32 and 33 show results of evaluating binding activity under the condition of Table 3 as to clones differing in screening and antibody purification timings.

mouse FSTL1 [2] = target: T1, mouse FSTL1; assay: ELISA, binding activity of purified antibody against mouse FSTL1 (Example 2)
Experimental: as §1, §2
FIGS. 64 and 65 show results of evaluating binding activity under the condition of Table 3 as to clones differing in screening and antibody purification timings.

[3] = tested on: GFP-positive and Snail-positive B16-F10 tumor cells; assay: Snail-positive B16-F10 bone metastasis model, intratumoral administration (Example 17); type: in vivo, mouse; settings: intratumoral 10 mg/kg on day 7, assay day 14; FIG. 105A
Excerpt: Three antibodies were comparatively analyzed for their antitumor effects and an immunosuppression-mitigating effect using bone metastasis models in which mouse melanoma cells B16-F10 forced to express Snail were subcutaneously and intravenously transplanted in C57BL/6N mice.
1. Experiment Group (n=5) • 1. No treatment • 2. Control IgG (anti-DNP) • 3. Anti-FSTL1 Clone #6-55 • 4. Anti-FSTL1 Clone #7-34 • 5. Anti-FSTL1 Clone #8-1
• Day 0: transplantation of GFP-positive and Snail-positive B16-F10 tumor cells (5×10^5 cells subcutaneously & 1×10^5 cells intravenously) • Day 7: intratumoral administration of the antibody (200 μg/0.1 mL/tumor) • Day 14: various assays (with a focus on flow cytometry analysis)
• Effects on the growth of subcutaneous tumor (calculation of tumor volume by tumor size measurement): measured 7, 11, and 14 days after tumor implantation (FIG. 105C) • Effects on bone metastasis (GFP-positive tumor cells in bone marrow) (FIG. 105A) • Effects on the expansion of mesenchymal stem cells (CD45− negative cells in bone marrow and in the spleen) (FIGS. 105B and 105D) • Effects on the expansion of immunosuppressive Treg cells (CD4-positive and Foxp3-positive cells in bone marrow or the spleen) (FIG. 105D) • Other immunosuppressive properties (FIG. 105D)
In order to evaluate in vivo antibody activity, antitumor effects and immunosuppression-mitigating effects were comparatively analyzed using bone metastasis models in which mouse melanoma cells (B16-F10) forced to express Snail were subcutaneously and intravenously transplanted in C57BL/6N mice. […]
It is known that when Snail-positive tumor cells are subcutaneously or intravenously transplanted to mice, the tumor metastasizes preferentially to bone marrow in addition to various organs, and this incurs the expansion of mesenchymal stem cells (MSCs) originating in the bone marrow, thereby systemically and strongly suppressing the induction of antitumor immunity (Cancer Research 73: 6185, 2013). […] The percentage (%) of CD45^− cells in the bone marrow cells was analyzed by flow cytometry.

FSTL1 = target: T2, FSTL1 (Homo sapiens, UniProt Q12841); assay: Biacore T-200 affinity of mouse chimeric antibodies for human FSTL1 (Example 33); type: binding
T2 sequence (Q12841 21-308): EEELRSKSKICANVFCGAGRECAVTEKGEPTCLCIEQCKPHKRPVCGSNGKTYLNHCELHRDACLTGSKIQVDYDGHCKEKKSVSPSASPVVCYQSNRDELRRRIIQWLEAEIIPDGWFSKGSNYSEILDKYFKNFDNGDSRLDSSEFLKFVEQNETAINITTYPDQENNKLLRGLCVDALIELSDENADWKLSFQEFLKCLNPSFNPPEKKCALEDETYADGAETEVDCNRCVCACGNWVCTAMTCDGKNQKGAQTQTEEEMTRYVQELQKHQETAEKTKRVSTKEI
Experimental: The mouse chimeric antibodies were immobilized onto Sensor Chip CM5 (GE Healthcare Japan Corp., BR-1005-30) using Mouse Antibody Capture Kit (GE Healthcare Japan Corp., BR-1008-38), and their affinity for human FSTL1 was calculated using Biacore T-200 (GE Healthcare Japan Corp.).
First, the exhaustive activity comparison of the obtained antibodies was conducted with the human FSTL1 concentration fixed to 10 μg/ml (Table 33-1, FIG. 122).
Next, the KD values of clone #6-55, #7-34, and #13 presumed to have high affinity in FIG. 122 were calculated with the antigen concentration adjusted to 0 to 20 μg/ml (Table 35-2).

[4] = antibody diluted from 100 ng/ml

B1: #7-34: chicken-mouse chimeric anti-FSTL1 antibody clone; variable regions SEQ ID NO: 787 (light), 789 (heavy) (antibody, V domains shown)
VH: AVTLDESGGGLQTPGGGLSLVCKASGFTFSSVTMQWVRQAPGKGLEWVASICSGSSTYYGPAVKGRATISRDNGQNTVRLQLNNLRAEDTATYYCAKIVGRGRWSCTSAAYNIDAWGHGTEVIVSS
VL: ASTQPSSVSANPGETVKITCSGGGNNYGWYQQKSPGSAPVTVIYYNNNRPSNIPSRFSGSTSGSTSTLTITGVQAEDEAVYYCGSYEGSTDSGIFGAGTTLTVL
modifications: mouse constant regions
- binding activity against mouse FSTL1 (mouse FSTL1 [1]; FIG. 1B/31B): specific and equivalently strong binding activity
- binding activity against mouse FSTL1 (mouse FSTL1 [2]; cross reactivity test, antibody diluted from 1000 ng/ml): specific and equivalently strong binding activity
- bone metastasis (GFP-positive tumor cells in bone marrow) [3]: no suppressive effect

B2: #13: chicken-mouse chimeric anti-FSTL1 antibody clone; variable regions SEQ ID NO: 815 (light), 817 (heavy) (antibody, V domains shown)
VH: AVTLDESGGGLQTPGGGLSLVCKASGFTFSSVTMQWVRQAPGKGLEWVASICSGSSTYYGPAVKGRATISRDNGQNTVRLQLNNLRAEDTATYYCAKIVGRGRWSCTSAAYNIDAWGHGTEVIVSS
VL: ASTQPSSVSANPGETVKITCSGGGNNYGWYQQKSPGSAPVTVIYNNNNRPSNIPSRFSGSKSGSTNTLTITGVQAEDEAVYYCGSYDSSSDSGIFGAGTTLTVL
modifications: mouse constant regions
- affinity in an assay system using surface plasmon resonance (FSTL1): strong affinity

B3: #8-4: chicken-mouse chimeric anti-FSTL1 antibody clone; variable regions SEQ ID NO: 795 (light), 797 (heavy) (antibody, V domains shown)
VH: AVTLDESGGGLQTPGGGLSLVCKGSGFTLSSFNMFWVRQAPGKGLEWVAGVGKDGGTAYGAAVDGRATISRDSGQSTVRLQLNNLRAEDTGTYFCAKAAGGCSYSWCGAYVGDLDAWGHGTEVIVSS
VL: ASSQPSSVSANPGETVKITCSGGSGYYYGWYQQKSPGSAPVTVIYNNDNKPSDIPSRFSGSKSGSTGTLTITGVQVEDEAVYFCGGYDNSGTGIFGAGTTLTVL
modifications: mouse constant regions
- binding activity against mouse FSTL1 (mouse FSTL1 [1]; FIG. 3B/33B): no binding activity
- binding activity against mouse FSTL1 (mouse FSTL1 [2]; [4]): exhibited no binding activity

B4: #33: chicken-mouse chimeric anti-FSTL1 antibody clone; variable regions SEQ ID NO: 823 (light), 825 (heavy) (antibody, V domains shown)
VH: AVTLDESGGGLQTPGGGLSLVCKASGFTFSSFNMNWVRQAPGKGLEYVAEISGTGSSTYYGSAVKGRATISRDNGQSTVRLQLNNLRAEDTATYFCARGDGAYSIDAWGHGTEVIVSS
VL: ASTQPSSVSANPGETVEITCSGDSSYYGWFQQKSPGSAPVTVIYDNTNRPSDIPSRFSGSKSGSTATLTITGVRAEDEAVYYCGGYDSSTYDGIFGAGTTLTVL
modifications: mouse constant regions
- affinity in an assay system using surface plasmon resonance (FSTL1): strong affinity

B5: #5-8: chicken-mouse chimeric anti-FSTL1 antibody clone; variable regions SEQ ID NO: 771 (light), 773 (heavy) (antibody, V domains shown)
VH: AVTLDESGGGLQTPGGGLSLVCKGSGFTFSSFNMFWVRQAPGKGLEWVAGIGKDGVPKYGTAVDGRATISKDNGQSTMRLQLNNLRAEDTGTYFCAKAAGGCSYDWCGIYTGDIDTWGHGTEVIVSS
VL: ASTQPSSVSANPGEAVKITCSGGSGSYYGWYQQKSPGSAPVTVIYNNNQRPSDIPSRFSGSKSGSTATLTITGVQAEDEAVYFCGGYDSSTGHGGIFGAGTTLTVL
modifications: mouse constant regions
- binding activity against mouse FSTL1 (mouse FSTL1 [1]; FIG. 3B/33B): no binding activity
- binding activity against mouse FSTL1 (mouse FSTL1 [2]; [4]): exhibited no binding activity

B6: #8-1: chicken-mouse chimeric anti-FSTL1 antibody clone; variable regions SEQ ID NO: 791 (light), 793 (heavy) (antibody, V domains shown)
VH: AVTLDESGGGLQTPGGALSLVCKGSGFTFSSFNMFWVRQAPGKGLEWVAGIGKDGVPKYGAAVDGRATISKDNGQSTMRLQLNNLRAEDTGTYFCAKAAGGCSYDWCGIYAGDIDTWGHGTEVIVSS
VL: ASTQPSSVSANPGEAVKITCSGGSGSYYGWYQQKSPGSAPVTVIYNNNQRPSDIPSRFSGSKSGSTATLTITGVQAEDEAVYFCGGYDSSSGHGGIFGAGTTLTVL
modifications: mouse constant regions
- binding activity against mouse FSTL1 (mouse FSTL1 [1]; FIG. 3B/33B): slightly exhibited binding activity; also recorded: very slightly exhibited binding activity
- binding activity against mouse FSTL1 (mouse FSTL1 [2]; [4]): slightly exhibited binding activity; also recorded: very slightly exhibited binding activity
- bone metastasis (GFP-positive tumor cells in bone marrow) [3]: suppressed
